Substrate in series [1]: CC(=O)N[C@@H](C)C(=O)N[C@@H](CC(C)C)C(=O)N[C@@H](CCCNC(=N)N)C(=O)N[C@@H](CCCNC(=N)N)C(=O)N[C@@H](Cc1ccccc1)C(=O)N[C@@H](CO)C(=O)N[C@@H](CC(C)C)C(=O)N[C@@H](CSCc1ccc2c(S(=O)(=O)N(C)C)ccc(O)c2n1)C(=O)NCC(=O)N[C@@H](C)C(N)=O
The experiment in a line: (§1) Activity of Aurora A.

Substrate in series [2]: CC(=O)N[C@@H](C)C(=O)N[C@@H](CC(C)C)C(=O)N[C@@H](CCCNC(=N)N)C(=O)N[C@@H](CCCNC(=N)N)C(=O)N[C@@H](C)C(=O)N[C@@H](CO)C(=O)N[C@@H](CC(C)C)C(=O)N[C@@H](CSCc1ccc2c(S(=O)(=O)N(C)C)ccc(O)c2n1)C(=O)N[C@@H](C)C(=O)N[C@@H](C)C(N)=O
The description is as §1.

Substrate in series [3]: CC(=O)N[C@@H](C)C(=O)NCC(=O)N[C@@H](CCCNC(=N)N)C(=O)N[C@@H](CCCNC(=N)N)C(=O)N[C@@H](Cc1ccc(O)cc1)C(=O)N[C@@H](CO)C(=O)N[C@@H](CC(C)C)C(=O)N[C@@H](CSCc1ccc2c(S(=O)(=O)N(C)C)ccc(O)c2n1)C(=O)N[C@H](C)C(=O)N[C@@H](C)C(N)=O
Described as §1.

Substrate in series [4]: CC(=O)N[C@@H](C)C(=O)N[C@@H](CC(C)C)C(=O)N[C@@H](CCCNC(=N)N)C(=O)N[C@@H](CCCNC(=N)N)C(=O)N[C@@H](Cc1ccccc1)C(=O)N[C@@H](CO)C(=O)N[C@@H](CC(C)C)C(=O)N[C@@H](CSCc1ccc2c(S(=O)(=O)N(C)C)ccc(O)c2n1)C(=O)N[C@@H](C)C(=O)N[C@@H](C)C(N)=O
The description is as §1.

Substrate in series [5]: CC(=O)N[C@@H](C)C(=O)N[C@@H](CC(C)C)C(=O)N[C@@H](CCCNC(=N)N)C(=O)N[C@@H](CCCNC(=N)N)C(=O)N[C@@H](Cc1ccccc1)C(=O)N[C@@H](CO)C(=O)N[C@@H](CC(C)C)C(=O)N[C@@H](CSCc1ccc2c(S(=O)(=O)N(C)C)ccc(O)c2n1)C(=O)NCC(=O)N[C@@H](C)C(N)=O
Put plainly: (§2) Ratio of Kcat to Km for Aurora A.

Substrate in series [6]: CC(=O)N[C@@H](C)C(=O)N[C@@H](CC(C)C)C(=O)N[C@@H](CCCNC(=N)N)C(=O)N[C@@H](CCCNC(=N)N)C(=O)N[C@@H](C)C(=O)N[C@@H](CO)C(=O)N[C@@H](CC(C)C)C(=O)N[C@@H](CSCc1ccc2c(S(=O)(=O)N(C)C)ccc(O)c2n1)C(=O)N[C@@H](C)C(=O)N[C@@H](C)C(N)=O
The series is described as §2.

Substrate in series [7]: CC(=O)N[C@@H](C)C(=O)NCC(=O)N[C@@H](CCCNC(=N)N)C(=O)N[C@@H](CCCNC(=N)N)C(=O)N[C@@H](Cc1ccc(O)cc1)C(=O)N[C@@H](CO)C(=O)N[C@@H](CC(C)C)C(=O)N[C@@H](CSCc1ccc2c(S(=O)(=O)N(C)C)ccc(O)c2n1)C(=O)N[C@H](C)C(=O)N[C@@H](C)C(N)=O
The series is described as §2.

Substrate in series [8]: CC(=O)N[C@@H](C)C(=O)N[C@@H](CC(C)C)C(=O)N[C@@H](CCCNC(=N)N)C(=O)N[C@@H](CCCNC(=N)N)C(=O)N[C@@H](Cc1ccccc1)C(=O)N[C@@H](CO)C(=O)N[C@@H](CC(C)C)C(=O)N[C@@H](CSCc1ccc2c(S(=O)(=O)N(C)C)ccc(O)c2n1)C(=O)N[C@@H](C)C(=O)N[C@@H](C)C(N)=O
The description is as §2.

B1: Aurora kinase A (Homo sapiens), O14965 (protein)
chain: MDRSKENCISGPVKATAPVGGPKRVLVTQQFPCQNPLPVNSGQAQRVLCPSNSSQRIPLQAQKLVSSHKPVQNQKQKQLQATSVPHPVSRPLNNTQKSKQPLPSAPENNPEEELASKQKNEESKKRQWALEDFEIGRPLGKGKFGNVYLAREKQSKFILALKVLFKAQLEKAGVEHQLRREVEIQSHLRHPNILRLYGYFHDATRVYLILEYAPLGTVYRELQKLSKFDEQRTATYITELANALSYCHSKRVIHRDIKPENLLLGSAGELKIADFGWSVHAPSSRRTTLCGTLDYLPPEMIEGRMHDEKVDLWSLGVLCYEFLVGKPPFEANTYQETYKRISRVEFTFPDFVTEGARDLISRLLKHNPSQRPMLREVLEHPWITANSSKPSNCQNKESASKQS
With B1, the Km is 57.1 µM in series [1], 298 µM in series [2], 65 µM in series [3] and 152 µM in series [4]. For the same protein, the Vmax in series [1] came out at 2.2 µmol/min/mg; in series [2] it was 1.7 µmol/min/mg; in series [3], 1.8 µmol/min/mg; in series [4], 2.6 µmol/min/mg. The kcat/Km is 7 µM⁻¹ min⁻¹ in series [5], 1 µM⁻¹ min⁻¹ in series [6], 5 µM⁻¹ min⁻¹ in series [7] and 3 µM⁻¹ min⁻¹ in series [8].

As usually defined, the Km is the concentration of substrate that gives half-maximal velocity. What is called Vmax is the rate approached at saturating substrate. As usually defined, the kcat/Km is the turnover number divided by the Michaelis constant.
